Laboratory results published in publication doi:10.1101/2025.08.28.672883 (2025).
“And” between values parts separate entries of the source, which are not always exact repeats. Identical values can stand only once.

B1: VYD222 Fab (Fab, V domains shown)
VH: EVQLVESGGGLVKPGGSLRLSCAASGFTFGSYEMNWVRQAPGKGLEWVSSISEDGYSTYYPDSLKGRFTISRDSAKNSLYLQMNSLRADDTAVYYCARDFGGDTAWAGTGFTYWGQGTLVTVSS
VL: QSVLTQPPSVSGAPGQRITISCTGSSSNIGAGYDVHWYQQLPGTAPKLLIYGSSSRNYGVPDRFSGSKSGTSASLAITGLQAEDEADYYCQSYDSDLGVLYTFGTGTKVTVL
B2: ADI-77310 Fab (Fab, V domains shown)
VH: EVQLVESGGGLVKPGGSLRLSCAASGFTFGSYYMNWVRQAPGKGLEWVSSISEDGYSTYYPDSLKGRFTISRDSAKNSLYLQMNSLRADDTAVYYCARDFGGHTAWAGTGFTYWGQGTLVTVSS
VL: QSVLTQPPSVSGAPGQRITISCTGSSSNIGAGYDVHWYQQLPGTAPKLLIYGSSSRNSGVPDRFSGSKSGTSASLAITGLQAEDEADYYCQSYDSDLSVLYTFGTGTKVTVL

Molecular target: SARS-CoV-2 spike receptor-binding domain, prototype (RBD-WT) (SARS-CoV-2, UniProt P0DTC2 333-528)
Test: BLI

Binder | Kd
B1 | 5.4 nM and 5 nM
B2 | 1 nM and 0.8 nM
